According to patent publication US20180224459A1:

Assays:
[1] = molecular target: HA-mSA2-BC2T-myc fusion displayed on yeast at the C-terminus of Aga2 (yeast) (UniProt P32781); test: flow cytometry, induced yeast displaying HA-mSA2-BC2T-myc; co-treatment with Myc-ab-FITC; mean of triplicate
[2] = molecular target: BC2T-mSA2-myc displayed on E. coli as a fusion to OmpX; test: flow cytometry, induced E. coli displaying BC2T-mSA2-myc; co-treatment with Myc-ab-FITC; mean of triplicate
[3] = molecular target: HA-mSA2-BC2T-myc fusion displayed on yeast at the C-terminus of Aga2 (yeast) (UniProt P32781); test: flow cytometry, induced yeast displaying HA-mSA2-BC2T-myc; co-treatment with HA-ab-FITC; mean of triplicate
[4] = molecular target: BC2T-mSA2-myc displayed on E. coli as a fusion to OmpX; test: flow cytometry, induced E. coli displaying BC2T-mSA2-myc; mean of triplicate
[5] = molecular target: HA-mSA2-BC2T-myc fusion displayed on yeast at the C-terminus of Aga2 (yeast) (UniProt P32781); test: flow cytometry, induced yeast displaying HA-mSA2-BC2T-myc; mean of triplicate
[6] = molecular target: Green Fluorescent Protein (GFP), biotinylated and immobilized on streptavidin coated plates [GFP: P42212]; test: competition ELISA on immobilized GFP; 1:1 mixture with GFPnb-BC2T as competitor, against GFPnb-BC2T alone; BC2nb-nLuc read-out

## BC2 nanobody-Cy5 conjugate (VHH)
[1]
  Cy5 (+): 70.9%
[2]
  Cy5 (+): 98.7%
[3]
  Cy5 (+): 71.2%
[4]
  Cy5 (+): 98.6%
[5]
  Cy5 (+): 71.1%

## BC2 nanobody-GFP fusion protein (from UniProt P42212 1-238) (VHH)
[4]
  FITC or GFP (+): 98.1%
[5]
  FITC or GFP (+): 59.6%

## GFP-binding nanobody-His6 fusion protein (VHH)
[6]
  decrease in luminescence: 50%
